This is an account of results in US20240262901A1 (published 2024).

The target in one experiment is Rat RGMa (rat, UniProt D4A188 170-424). Kind of experiment: BIAcore; Ab captured via anti-hIgG Fc, antigen injected. Here is the method: (§1) The potency data correlates with the affinity data (see Table 5). The affinity of h5F9.23 affinity matured Abs towards human RGMa, rat RGMa, and human RGMc were determined by BIAcore analysis (Table 5). Testing Abs were captured to the surface of a CM5 chip via anti-hIgG Fc Ab, and serially diluted antigens were injected. Association and dissociation rates were monitored for 5 and 10 min respectively. Sensorgrams were fitted by global analysis using the BIAevaluation 4.0.1 software for a 1:1 Langmuir binding model. The equilibrium dissociation constants (KD) were calculated from kinetic rate constants (off rate kd and on rate ka): KD=kd/ka.

For a further experiment, the target named is T1, human RGMa (human, UniProt Q96B86 48-422, limits assumed, biotinylated in the indirect ELISA).
T1 construct: also called hRGMa; biotin hRGMa
T1 sequence: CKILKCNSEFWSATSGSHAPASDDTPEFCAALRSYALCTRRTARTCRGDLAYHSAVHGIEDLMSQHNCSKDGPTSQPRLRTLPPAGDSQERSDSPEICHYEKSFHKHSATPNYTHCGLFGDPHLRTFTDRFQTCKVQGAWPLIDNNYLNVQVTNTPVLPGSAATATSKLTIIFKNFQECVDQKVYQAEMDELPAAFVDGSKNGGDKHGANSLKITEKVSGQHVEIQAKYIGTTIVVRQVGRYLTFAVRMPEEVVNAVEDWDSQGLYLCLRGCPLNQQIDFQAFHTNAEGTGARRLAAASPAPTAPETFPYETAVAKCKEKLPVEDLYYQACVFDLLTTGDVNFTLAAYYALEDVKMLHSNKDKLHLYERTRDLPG
The experiment is described as above. The method, then: as §1

Sequence of Rat RGMa (D4A188 entry or part of it): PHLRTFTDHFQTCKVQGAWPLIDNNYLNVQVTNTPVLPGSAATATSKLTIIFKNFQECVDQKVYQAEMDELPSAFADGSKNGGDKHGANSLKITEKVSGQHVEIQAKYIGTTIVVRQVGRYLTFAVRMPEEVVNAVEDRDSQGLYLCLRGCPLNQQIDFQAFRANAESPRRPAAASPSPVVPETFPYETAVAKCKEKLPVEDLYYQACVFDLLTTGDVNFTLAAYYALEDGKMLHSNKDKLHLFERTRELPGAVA

B1: humanized antibody 5F9.23 (antibody, V domains shown)
VH: EVQLVESGGGLVQPGGSLRLSCAASGFTFSNYGMNWIRQAPGKGLEWIGMIYYDSSEKHYADSVKGRFTISRDNSKNTLYLQMNSLRAEDTAVYYCAKGTTPDYWGQGTMVTVSS
VL: DVVLTQSPLSLPVTLGQPASISCRSSQSLEYSDGYTFLEWFQQRPGQSPRLLIYEVSNRFSGVPDRFSGSGSGTDFTLKISRVEAEDVGVYYCFQATHDPLTFGQGTKLEIKR
notes: also called h5F9.23; H5F9.23
Consider B1, for which, in the experiment with Rat RGMa, the Kd (commonly the equilibrium constant for the complex coming apart) turned out to be 2.1 nM; the koff (commonly the first-order rate constant of dissociation) is 0.0017 s⁻¹; the association rate constant (kon) (as a rule, the second-order rate constant of association) was 830000 M⁻¹ s⁻¹. This molecule also displayed a kon in the experiment with human RGMa of 6e+06 M⁻¹ s⁻¹.
